We go through two molecules from patent US20160237132A1 (ALKERMES, published 2016).

Where only a bound is given, the exact number is not on record here.

The assay has as its target IL-6 (UniProt P05231 30-212, limits assumed). Description: cell-based or functional assay.

Chain of IL-6 (P05231 30-212 limits assumed): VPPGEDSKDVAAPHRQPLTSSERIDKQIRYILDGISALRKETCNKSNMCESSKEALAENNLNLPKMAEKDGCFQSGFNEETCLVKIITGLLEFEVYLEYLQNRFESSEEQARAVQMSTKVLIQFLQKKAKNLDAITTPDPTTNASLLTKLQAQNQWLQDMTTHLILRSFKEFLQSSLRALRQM

B1: RDB1542 (Fc fusion)
chain: QNQWLQDMTTHLILRSFKEFLQSSLRALRQMSGGSGGGSSERIDKQIRYILDGISALRKETCNKSNMCESSKEALAENNLNLPKMAEKDGCFQSGFNEETCLVKIITGLLEFEVYLEYLQNRFESSEEQARAVQMSTKVLIQFLQKKAKNLDAITTPDPTTNASLLTKLQASELLDPCGYISPESPVVQLHSNFTAVCVLKEKCMDYFHVNANYIVWKTNHFTIPKEQYTIINRTASSVTFTDIASLNIQLTCNILTFGQLEQNVYGITIISGGSERKCCVECPPCPAPPVAGPSVFLFPPKPKDTLMISRTPEVTCVVVDVSHEDPEVQFNWYVDGVEVHNAKTKPREEQFNSTFRVVSVLTVVHQDWLNGKEYKCKVSNKGLPAPIEKTISKTKGQPREPQVYTLPPSREEMTKNQVSLTCLVKGFYPSDISVEWESNGQPENNYKTTPPMLDSDGSFFLYSKLTVDKSRWQQGNVFSCSVMHEALHNHYTQKSLSLSPGK
Take B1: the “IC50, inhibition of IL-6-dependent differentiation of M1 cells (percent CD32 positive cells)” value was above 1000 µM.

B2: RDB1562 (Fc fusion)
chain: QNQWLQDMTTHLILRSFKEFLQSSLRALRQMSGGSGGGSSERIDKQIRYILDGISALRKETCNKSNMCESSKEALAENNLNLPKMAEKDGCFQSGFNEETCLVKIITGLLEFEVYLEYLQNRFESSEEQARAVQMSTKVLIQFLQKKAKNLDAITTPDPTTNASLLTKLQASELLDPCGYISPESPVVQLHSNFTAVCVLKEKCMDYFHVNANYIVWKTNHFTIPKEQYTIINRTASSVTFTDIASLNIQLTCNILTFGQLEQNVYGITIISGGGGGSASSESSASSDGPHPVITESRASSESSASSDGPHPVITESRSERKCCVECPPCPAPPVAGPSVFLFPPKPKDTLMISRTPEVTCVVVDVSHEDPEVQFNWYVDGVEVHNAKTKPREEQFNSTFRVVSVLTVVHQDWLNGKEYKCKVSNKGLPAPIEKTISKTKGQPREPQVYTLPPSREEMTKNQVSLTCLVKGFYPSDISVEWESNGQPENNYKTTPPMLDSDGSFFLYSKLTVDKSRWQQGNVFSCSVMHEALHNHYTQKSLSLSPGK
With B2, the “IC50, inhibition of IL-6-dependent differentiation of M1 cells (percent CD32 positive cells)” value was found to be 0.0026 µM and the “fold potency against RDB1542, inhibition of IL-6-dependent differentiation of M1 cells” value was above 400 fold.
